Results: the supplement of paper PMC9170038

System: MS2 coat protein
Assay: apparent KD of MS2 coat protein; designed switch direction (-1 OFF switch, 1 ON switch): -1; higher = weaker reporter binding
Outline: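 Designed RNA switches were transcribed on Illumina chips by stalled E. coli RNA polymerase and titrated with SNAP-549-labelled MS2 coat protein from 0.7 or 1.5 nM, doubling to 3 µM. Step length ran from 0.8–1.5 h at the lowest concentration to 10–20 min at the highest. The apparent KD is the median over clusters for each design, from curve-fitted normalised cluster fluorescence.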

[1] = Eterna round: R95, input ligand: FMN 200 uM
[2] = Eterna round: R95, input ligand: microRNA oligo, concentration not stated
[3] = Eterna round: R95, input ligand: none
[4] = input ligand: microRNA oligo, concentration not stated

| Sequence | apparent KD of MS2 coat protein (input ligand: FMN 200 uM) [nM] | apparent KD of MS2 coat protein (input ligand: none) [nM] | further results |
| --- | --- | --- | --- |
| UUGCUCCCUUAGUACUCUACAAGCUUUUUGUUCGUUUUAACAUGAGGAUCACCCAUGUCUAGUGGAUCUGAUCGGGU [JL ViennaUCT Isreen mod 4] (puzzle: Sensor v3, turn-off variant 2) | – | – | apparent KD of MS2 coat protein [1]: 136 nM; apparent KD of MS2 coat protein [2]: 226 nM; apparent KD of MS2 coat protein [3]: 165 nM |
| GAUCUGUGAGGAUAUUUAUCGUAGUGCGUGUAGCCUGCGCCGGAGAAGGCACAUGAGGAUCACCCAUGUUCUAA [Eternabot (L1) Solution 45] (Eterna round: R97, puzzle: Exclusion 4) | 57.2 | 51.8 | – |
| AACUCAUGUUCAGGAUAUCGCGUUCCAAAGACAUGAGAAGGGAACAUGAGGAUCACCCAUGUACCCGGUCUCAGACCGGGCUUC [Tiriaron] (Eterna round: R96, puzzle: Exclusion NG 1) | 115 | 64.1 | apparent KD of MS2 coat protein [4]: 41.8 nM |
| CUGAACAUAGGAUAUACAUGAGGAUCACCCAUGUAUAUAAAAGGGUGUUCCAACUAAAGUAGAAGGAUGUAUAG [ExFusion 4 - Jieux - Exclusion 3] (Eterna round: R97, puzzle: Exclusion 3) | 45.1 | 57.8 | – |
| ACGCGUGAAGGAUAUACGCGGGCCCAAGCGGAUCACACCGCACAUGAGGAUCACCCAUGUAGAAGGUCACAAAA [r4x2dt1] (Eterna round: R97, puzzle: Exclusion 2) | 169 | 23.5 | – |
| AAGGACAGAGGAUAUACAUAGAUACAGAUUCAUGUAGAACUACAUGAGGAUCACCCAUGUAGAAGGCUGUCCUA [Fiskers Ex 2 - 2] (Eterna round: R96, puzzle: Exclusion 2) | 412 | 31.7 | apparent KD of MS2 coat protein [4]: 25.3 nM |
| CUUUUGCAACAAGCCAAUAACAUGAGGAUCACCCAUGUCCUGUUGAGGUCUUCCGUCGUUCUUGCUCACGUCUUACG [Eternabot (L1) Solution 50] (Eterna round: R97, puzzle: Sensor, turn-off variant 1) | 54.8 | 56.3 | – |
| UCGACUAGAGGAUAUACAUGAGGAUCACCCAUGUUGGUAUCACGAAUUCAACCAACUCGUAGAAGGCUGACGAC [Eternabot (L1) Solution 98] (Eterna round: R97, puzzle: Exclusion 3) | 24.2 | 24.9 | – |
| UCGCUGCGAGGAUAUACGUUUGCGCGCUUUCGUUUGCGCGUACAUGAGGAUCACCCAUGUAGAAGGCGCGCUGC [Apr-15 SS2-7] (puzzle: Exclusion 2) | – | – | apparent KD of MS2 coat protein [2]: 13.1 nM |
| CUUUUGUGAGGAUAUCAGUAGUAAAUAAAUAAAAUAACUACUGAGAAGGCACAUGAGGAUCACCCAUGUUCCUC [Mat - Exclusion 4 - Mod of Salish - D69] (puzzle: Exclusion 4) | – | – | apparent KD of MS2 coat protein [2]: 38.6 nM |
| UGUACUAUGCGUGCUGACAUGCGUAGUGCAGCAGGUGUUACAUGAGGAUCACCCAUGUCCUCAUUUGCUCGUCUUAA [Mat - Sensor v3 - Turn-off var 2 - D17] (puzzle: Sensor v3, turn-off variant 2) | – | – | apparent KD of MS2 coat protein [1]: 205 nM; apparent KD of MS2 coat protein [2]: 219 nM; apparent KD of MS2 coat protein [3]: 177 nM |
| CUUCAGUCAGGAUAUCAUGAGCUCUGCCGACACGGGCUCGCUGAGAAGGGACAUGAGGAUCACCCAUGUAGACC [EX4 C.20] (Eterna round: R97, puzzle: Exclusion 4) | 132 | 34.1 | – |
| CACCGUAACAGAGGAUAUGAUACAUGAGGAUCACCCAUGUAAUAAAUGAGAAUUUCGAAUGUACCUCAGAAGGCUGAAACCGGC [Ostricism 81 - Jieux - Exclusion NG 2] (Eterna round: R96, puzzle: Exclusion NG 2) | 115 | 48 | apparent KD of MS2 coat protein [4]: 38.5 nM |
| CUUUUGUGAGGAUAUUAGUAGUAAAUAAAUAAAAUUACUACUGAGAAGGCACAUGAGGAUCACCCAUGUUUCUC [salish99_ex4_r3_065] (Eterna round: R96, puzzle: Exclusion 4) | 278 | 35.5 | apparent KD of MS2 coat protein [4]: 31.2 nM |
| UAUGUUUUUGUGAGGAUAUACUUUGUUUGGUCGUAGUAGAAGGCACAUGAGGAUCACCCAUGUAGAUUUUUGGU [JR_BME4_Sub010] (puzzle: Brourd's mod of Exclusion 4) | – | – | apparent KD of MS2 coat protein [2]: 22.9 nM |
| GAGGGACAUGAGGAUCACCCAUGUGAGGAUAUGUAAGAGAGAGGAGAGAGGAUAAGAAACAGAAGGCGCGUGAG [JR_Exclu1_Sub089] (puzzle: Exclusion 1) | – | – | apparent KD of MS2 coat protein [1]: 30.1 nM; apparent KD of MS2 coat protein [2]: 55.7 nM; apparent KD of MS2 coat protein [3]: 43.2 nM |
| CGGCCUCGAGGAUAUGCUAUAAAAUGACCUUGGGUCAAAUGACUUGAGGAUCACCCAAGUAGAAGGCGAAAGCC [Bibice] (Eterna round: R97, puzzle: Exclusion 2) | 102 | 93 | – |
| AACAUGUGAGGAUAUGUCACAUGGCUCUUCGGAGCAAGAUGACAGAAGGCACAUGAGGAUCACCCAUGUGCAUC [Ex4-3: 27] (puzzle: Exclusion 4) | – | – | apparent KD of MS2 coat protein [2]: 11.6 nM |

| Sequence | apparent KD of MS2 coat protein (input ligand: FMN 200 uM) [nM] | apparent KD of MS2 coat protein (input ligand: none) [nM] | further results |
| --- | --- | --- | --- |
| GUAAUGAUUGUGAGGAUAUUUCAUAGAUAGAUAUUAGAGAAGGUACAUGAGGAUCACCCAUGUGUGAUCAUACA [Brourd's EX4 #73] (Eterna round: R97, puzzle: Brourd's mod of Exclusion 4) | 672 | 1050 | – |
| UUAAUGGCUGUGAGGAUAUCGGAUAGAUAGAUAUUCGAGAAGGUACAUGAGGAUCACCCAUGUGUGAUUAGAGA [Brourd's EX4 #64] (Eterna round: R97, puzzle: Brourd's mod of Exclusion 4) | 269 | 244 | – |
| GUCUAGAGAGGAUAUAUUUACACUGUACGUCGGAUGAUUGCACUUGAGGAUCACCCAAGUAGAAGGCUCGAGGG [EX2 #33] (Eterna round: R97, puzzle: Exclusion 2) | 130 | 112 | – |
| UUGGCAGGUUUUUUGUUUGACAUGAGGAUCACCCAUGUUGCGUGGGUUGUGUGUGUGCGGUGUAUAUAUAUGGUUCU [-19.3, -40.7 kcal, A 14%] (Eterna round: R97, puzzle: Sensor, turn-off variant 1) | 203 | 364 | – |
| UUGUUACAUGAGGAUCACCCAUGUGAGGAUAUGGUUCAGUAAUGUAAUGUAAAGUAAUCCAGAAGGCACAUGUU [1st #26] (Eterna round: R97, puzzle: Exclusion 1) | 1290 | 756 | – |
| GAGACUGGAGGAUAUACGAACUGGUGUAUCUGGAAGGAUCGACUUGAGGAUCACCCAAGUAGAAGGCUAGUGAA [Esgeti] (Eterna round: R97, puzzle: Exclusion 2) | 395 | 40.5 | – |
| AGUCGGUCAGGAUAUGCAAUCGUGGACAUGAGGAUCACCCAUGUAACGUGGGCCUGGUUUGUAGAAGGGACGAGCA [EX5 #87] (Eterna round: R97, puzzle: Exclusion 5) | 66 | 61.2 | – |
| UAUACACAUGAGGAUCACCCAUGUGAGGAUAUGCGUACGUUGUCCGUAGGCGACGUGCGCAGAAGGCGCAAGGU [Mat - Mod of JL D95] (puzzle: Exclusion 1) | – | – | apparent KD of MS2 coat protein [2]: 61.4 nM |
| AACAUGGCAGAGGAUAUAGGACGCUGGCAUAAACUAGAAGGCUGCACAUGAGGAUCACCCAUGUGUUCCAAAAC [Atquisuson] (Eterna round: R97, puzzle: Exclusion 6) | 38.6 | 22.6 | – |
| GGUUAGACGGUAGGAUAUCCAUAUCGAGUGACCCUUUCAUAACAUGAGGAUCACCCAUGUCGGUGGGAGAAGGGCCGUACGGCG [salish99_ExNG02_R04_009] (Eterna round: R96, puzzle: Exclusion NG 2) | 50.9 | 42.2 | apparent KD of MS2 coat protein [4]: 33.5 nM |
| AAUAACAGAGGAUAUACUAUUUUAUGUGUUUAUUGUUUUGAACAUGAGGAUCACCCAUGUAGAAGGCUGAAUAA [JMF 24] (puzzle: Exclusion 2) | – | – | apparent KD of MS2 coat protein [2]: 22.3 nM |
| UCAUGUCCAGAGGAUAUGUAGCGGGAGACCGCAACAGAAGGCUGGACAUGAGGAUCACCCAUGUGCGCCUUCCA [jl-ex3-4.26 ViennaUCT mod] (Eterna round: R97, puzzle: Exclusion 6) | 21.8 | 17 | – |
| GGUGUACAUGAGGAUCACCCAUGUUAGGAUAUAUCCAAACGCCUAGAGGAGAGGCACGAUAGAAGGAACGUGUA [Eternabot (Original) Solution 33] (Eterna round: R97, puzzle: Exclusion 1) | 37.2 | 41 | – |
| UACGAGCUAGGAUAUGCUUUGGGCUCGCUUUCCUUCGAUAAACUUGAGGAUCACCCAAGUAGAAGGAGCUUGUA [Mod 33 - Jieux - Exclusion 2] (Eterna round: R97, puzzle: Exclusion 2) | 61.5 | 25.9 | – |
| ACAUUCAGAGGAUAUGCGCAUAGAUAAGACUUUUUUUUUUAACAUGAGGAUCACCCAUGUAGAAGGCUGUAACA [Ex2 #49] (Eterna round: R97, puzzle: Exclusion 2) | 21.4 | 21.7 | – |
| CAGGAAAUAGAGGAUAUAGGAGUCGAUAGACUCCUAGAAGGCUAUACAUGAGGAUCACCCAUGUGUCCUACCUG [Fiskers Ex 6 - 69] (puzzle: Exclusion 6) | – | – | apparent KD of MS2 coat protein [2]: 14.6 nM |
| GAUAUGGUGGAGGAUAUCAUUUUGGAACCAAAGUGAGAAGGCUAAACAUGAGGAUCACCCAUGUGAAGCAAGGG [Eternabot (Original) Solution 41] (Eterna round: R97, puzzle: Exclusion 6) | 23.3 | 20.4 | – |
